Test results taken from publication PMC11289419, “Modular RNA motifs for orthogonal phase separated compartments”.

T1: P22 N peptide (bacteriophage P22, UniProt P04891 14-30)
T1 chain: NAKTRRHERRRKLAIER


Key:
[1] = molecular target: T1, P22 N peptide; assay: fluorescence microscopy recruitment to RNA condensate; 25% aptamer strand; Multi-stranded: 40 mM HEPES, 100 mM KCl, 500 mM NaCl, 5 uM strands (1.25 uM aptamer strand), 70 C melt, 12 h hold (50 C), imaged after 20 C; co-transcriptional: T7 transcription buffer with 10 mM NaCl, 30 mM MgCl2, 2 mM spermidine, 37 C; pH not given; details: tags: 6-FAM (stated for single-stranded nanostar experiments); four-arm nanostar of 4 strands, 5' palindromic sticky end GAGCUC on S2-S4; boxB hairpin 5' of the S1 sticky end
[2] = molecular target: streptavidin (fluorescently labeled) (UniProt P22629 25-183); assay: as above; details: protein: commercial; tags: fluorescent label; chain copies: 4; four-arm nanostar of 4 strands, 5' palindromic sticky end GCGC on S2-S4; aptamer 5' of the S1 sticky end
streptavidin (fluorescently labeled), sequence (P22629 25-183): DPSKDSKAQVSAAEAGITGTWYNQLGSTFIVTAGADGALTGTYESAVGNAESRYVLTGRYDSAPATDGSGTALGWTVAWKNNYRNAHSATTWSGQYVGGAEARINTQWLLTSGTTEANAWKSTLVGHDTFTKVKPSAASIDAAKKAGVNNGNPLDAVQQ

Row | Binder | binding result [1] | binding result [2]
1 | 4m5 nanostar with P22 boxB (structured_RNA) RNA 1: GGUGCGCUGACAAAGCGCGCCGAGCUCAGAGUCUCUGGUCGCCAAGCUUAUCGGACACUG RNA 2: GAGCUCAAGUAGGCACAUCAGCAAGGCGACCAGAGACUC RNA 3: GAGCUCAUGCGUGGAGACAACGAAGCUGAUGUGCCUACU RNA 4: GAGCUCACAGUGUCCGAUAAGCAACGUUGUCUCCACGCA | binds | 
2 | 4m3 nanostar with streptavidin aptamer (structured_RNA) RNA 1: GAUGCGGCCGCCGACCAGAAUCAUGCAAGUGCGUAAGAUAGUCGCGGGUCGGCGGCCGCAUCGCGCAUCCACGGCGUGUCGCAAGACGCCGACGCGUCG RNA 2: GCGCAGUCGGGAUAUACCGGAAGCGACACGCCGUGGA RNA 3: GCGCAAGUCCACAGUGGCGCAACCGGUAUAUCCCGAC RNA 4: GCGCACGACGCGUCGGCGUCAAGCGCCACUGUGGACU |  | binds
